For this experiment, the target named is T1, PHYTOCHROME-INTERACTING FACTOR 7 with Flash tag (35S::PIF7-Flash; 9xMyc-6xHis-3xFlag) (Arabidopsis thaliana, UniProt Q570R7 1-366).
T1 sequence (looked up): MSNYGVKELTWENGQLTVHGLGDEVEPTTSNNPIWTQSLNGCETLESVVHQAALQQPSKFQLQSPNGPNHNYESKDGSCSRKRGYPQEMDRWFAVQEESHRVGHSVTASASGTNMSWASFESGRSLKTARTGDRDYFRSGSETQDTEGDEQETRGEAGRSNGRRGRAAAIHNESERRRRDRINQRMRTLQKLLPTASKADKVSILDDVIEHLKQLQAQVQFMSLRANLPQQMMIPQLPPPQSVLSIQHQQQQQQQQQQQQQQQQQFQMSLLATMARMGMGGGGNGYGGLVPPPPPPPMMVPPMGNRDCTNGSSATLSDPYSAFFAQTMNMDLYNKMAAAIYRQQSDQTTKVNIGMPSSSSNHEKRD
The experiment is described as follows: co-IP.

B1: ANGUSTIFOLIA3 / GRF-INTERACTING FACTOR 1 with GS^yellow tag (35S::AN3-GS^yellow) (natural protein, Arabidopsis thaliana, UniProt Q8L8A5 1-210, looked up)
chain: MQQHLMQMQPMMAGYYPSNVTSDHIQQYLDENKSLILKIVESQNSGKLSECAENQARLQRNLMYLAAIADSQPQPPSVHSQYGSAGGGMIQGEGGSHYLQQQQATQQQQMTQQSLMAARSSMLYAQQQQQQQPYATLQHQQLHHSQLGMSSSSGGGGSSGLHILQGEAGGFHDFGRGKPEMGSGGGGEGRGGSSGDGGETLYLKSSDDGN
For B1, the binding result is given as “binds”.

Source of the values: paper PMC8812563 (Proceedings of the National Academy of Sciences of the …, 2022).
